Patent US20220041744A1 (INNATE PHARMA, published 2022)
Where a chain is given by its changes, count along the chain named.

What was measured:
[1] = target: T1, human recombinant soluble CD73 protein (human, UniProt P21589 27-547); assay: SPR, Ab captured on Protein A, soluble huCD73 as analyte
T1 construct: also called huCD73; rhCD73
T1 sequence: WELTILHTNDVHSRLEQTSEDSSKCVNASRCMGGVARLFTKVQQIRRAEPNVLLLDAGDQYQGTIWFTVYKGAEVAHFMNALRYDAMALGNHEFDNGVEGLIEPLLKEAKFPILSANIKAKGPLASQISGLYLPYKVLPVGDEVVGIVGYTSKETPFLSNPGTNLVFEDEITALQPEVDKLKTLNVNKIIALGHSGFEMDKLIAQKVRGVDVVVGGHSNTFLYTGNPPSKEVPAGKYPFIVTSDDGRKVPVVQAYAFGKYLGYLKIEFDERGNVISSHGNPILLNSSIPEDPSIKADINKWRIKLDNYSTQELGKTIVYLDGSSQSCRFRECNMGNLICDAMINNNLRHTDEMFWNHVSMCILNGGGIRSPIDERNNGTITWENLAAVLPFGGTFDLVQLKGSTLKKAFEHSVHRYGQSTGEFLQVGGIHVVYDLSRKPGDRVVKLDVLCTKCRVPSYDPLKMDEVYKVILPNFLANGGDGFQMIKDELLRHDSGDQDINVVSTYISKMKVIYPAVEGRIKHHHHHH
Experimental: SPR measurements were performed on a Biacore™ T200 apparatus at 25° C. Protein-A (GE Healthcare) was immobilized on a Sensor Chip CM5 (GE Healthcare). […] The entire sensorgram sets were fitted using the 1:1 kinetic binding model. Bivalent affinities and kinetic association and dissociation rate constants are calculated.
The binding of the antibodies in Table 2 of Example 1 were tested for binding to human soluble dimeric CD73 proteins and were cloned, produced and purified. Affinity and association and dissociation constants of humanized variants were assessed by SPR analysis.

[2] = target: T2, human CD73 expressed at the surface of cells (human, UniProt P21589 27-549); assay: flow cytometry titration on transfected cells expressing human CD73, PE goat anti-human IgG (H+L) detection, MFI
T2 construct: T cells in the proliferation assays; also called huCD73; CD73-expressing cells
T2 sequence: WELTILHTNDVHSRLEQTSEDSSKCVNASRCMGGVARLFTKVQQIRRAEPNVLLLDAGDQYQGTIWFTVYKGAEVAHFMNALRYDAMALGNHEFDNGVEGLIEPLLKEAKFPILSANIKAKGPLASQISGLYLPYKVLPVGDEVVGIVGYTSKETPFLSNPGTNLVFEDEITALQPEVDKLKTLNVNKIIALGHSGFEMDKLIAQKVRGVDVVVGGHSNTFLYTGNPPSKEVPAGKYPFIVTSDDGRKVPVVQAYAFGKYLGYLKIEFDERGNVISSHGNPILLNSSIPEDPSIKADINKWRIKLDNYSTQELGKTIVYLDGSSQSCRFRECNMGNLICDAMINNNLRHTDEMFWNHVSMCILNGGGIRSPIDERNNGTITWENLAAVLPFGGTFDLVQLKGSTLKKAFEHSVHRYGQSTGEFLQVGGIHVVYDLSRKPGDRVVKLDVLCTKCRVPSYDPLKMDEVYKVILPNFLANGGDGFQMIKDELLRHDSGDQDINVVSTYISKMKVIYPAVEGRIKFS

[3] = target: T3, cynomolgus CD73 expressed on transfected cells (cynomolgus monkey (Macaca fascicularis)); assay: flow cytometry titration on transfected cells expressing cynomolgus CD73, PE goat anti-human IgG (H+L) detection, MFI
T3 construct: cell-surface expressed on a transfected cell line; Same protein as m38, which is the recombinant soluble form; It is kept apart from m38 as the first reading kept m36 and m37 apart for human CD73; also called cynomolgus CD73 protein (cell surface); cyCD73

B1: H2L2 (antibody, human IgG1, V domains shown)
VH: QIQLVQSGAEVKKPGASVKVSCKASGYAFTSYNMYWVRQAPGQSLEWMGYIDPYNGGSSYNLTFKGRVTITVDKSASTAYMELSSLRSEDTAVYYCARGYGNYKAWFAYWGQGTLVTVSS
VL: DIQMTQSPSSLSASVGDRVTITCKASQSVSNDVAWYQQKPGKAPKLLIYYASTRYTGVPDRFSGSGYGTDFTFTISSLQPEDIATYYCQQDYSSLTFGQGTKLEIK
Kd [1]: 1.3 nM | koff [1]: 0.000155 s⁻¹ | kon [1]: 118000 M⁻¹ s⁻¹

B2: H0L0 (antibody, human IgG1, V domains shown)
VH: B1 VH with I2V, A28T, S44R, V72R, K74T
VL: B1 VL with D60S, Y67S
notes: variable-domain limits counted by alignment with H1 and L1
Kd [1]: 65 nM | koff [1]: 0.00882 s⁻¹ | kon [1]: 136000 M⁻¹ s⁻¹

B3: H0L1 (antibody, human IgG1, V domains shown)
VH: B1 VH with I2V, A28T, S44R, V72R, K74T
VL: B1 VL with D60S
notes: H0 VH limits counted by alignment with H1
Kd [1]: 0.9 nM | koff [1]: 0.000127 s⁻¹ | kon [1]: 144000 M⁻¹ s⁻¹

B4: H0L2 (antibody, human IgG1, V domains shown)
VH: B1 VH with I2V, A28T, S44R, V72R, K74T
VL: B1 VL
notes: as for B3
Kd [1]: 0.7 nM | koff [1]: 0.000119 s⁻¹ | kon [1]: 168000 M⁻¹ s⁻¹

B5: H0L3 (antibody, human IgG1, V domains shown)
VH: B1 VH with I2V, A28T, S44R, V72R, K74T
VL: B1 VL with I2V
notes: as for B3
Kd [1]: 0.6 nM | koff [1]: 9.49e-05 s⁻¹ | kon [1]: 170000 M⁻¹ s⁻¹

B6: H0L4 (antibody, human IgG1, V domains shown)
VH: B1 VH with I2V, A28T, S44R, V72R, K74T
VL: B1 VL with I2V, Y87F
notes: as for B3
Kd [1]: 0.6 nM | koff [1]: 8.65e-05 s⁻¹ | kon [1]: 137000 M⁻¹ s⁻¹

B7: H1L0 (antibody, human IgG1, V domains shown)
VH: B1 VH with A28T, S44R, V72R
VL: B1 VL with D60S, Y67S
notes: L0 VL limits counted by alignment with L1
Kd [1]: 28.7 nM | koff [1]: 0.00296 s⁻¹ | kon [1]: 103000 M⁻¹ s⁻¹ | EC50 (read off the curve) [2]: ~0.2 µg/mL

B8: H1L1 (antibody, human IgG1, V domains shown)
VH: B1 VH with A28T, S44R, V72R
VL: B1 VL with D60S
Kd [1]: 0.8 nM | koff [1]: 8.43e-05 s⁻¹ | kon [1]: 100000 M⁻¹ s⁻¹ | EC50 (read off the curve) [3]: ~0.2 µg/mL

B9: H1L2 (antibody, human IgG1, V domains shown)
VH: B1 VH with A28T, S44R, V72R
VL: B1 VL
Kd [1]: 0.6 nM | koff [1]: 8.38e-05 s⁻¹ | kon [1]: 135000 M⁻¹ s⁻¹ | EC50 (read off the curve) [3]: ~0.2 µg/mL

B10: H1L3 (antibody, human IgG1, V domains shown)
VH: B1 VH with A28T, S44R, V72R
VL: B1 VL with I2V
Kd [1]: 0.8 nM | koff [1]: 7.2e-05 s⁻¹ | kon [1]: 92600 M⁻¹ s⁻¹

B11: H1L4 (antibody, human IgG1, V domains shown)
VH: B1 VH with A28T, S44R, V72R
VL: B1 VL with I2V, Y87F
Kd [1]: 0.7 nM | koff [1]: 6.77e-05 s⁻¹ | kon [1]: 98200 M⁻¹ s⁻¹

B12: H2L0 (antibody, human IgG1, V domains shown)
VH: B1 VH
VL: B1 VL with D60S, Y67S
notes: as for B7
EC50 (read off the curve) [2]: ~0.2 µg/mL | EC50 (read off the curve) [3]: ~0.2 µg/mL

B13: H2L1 (antibody, human IgG1, V domains shown)
VH: B1 VH
VL: B1 VL with D60S
Kd [1]: 1.4 nM | koff [1]: 0.000118 s⁻¹ | kon [1]: 83700 M⁻¹ s⁻¹ | EC50 (read off the curve) [2]: ~0.1 µg/mL

B14: H2L3 (antibody, human IgG1, V domains shown)
VH: B1 VH
VL: B1 VL with I2V
Kd [1]: 1 nM | koff [1]: 0.000123 s⁻¹ | kon [1]: 120000 M⁻¹ s⁻¹

B15: H2L4 (antibody, human IgG1, V domains shown)
VH: B1 VH
VL: B1 VL with I2V, Y87F
Kd [1]: 0.9 nM | koff [1]: 0.000106 s⁻¹ | kon [1]: 120000 M⁻¹ s⁻¹

B16: H3L0 (antibody, human IgG1, V domains shown)
VH: B1 VH with M48I, R67K, V68A
VL: B1 VL with D60S, Y67S
notes: as for B7
Kd [1]: 29.4 nM | koff [1]: 0.00797 s⁻¹ | kon [1]: 271000 M⁻¹ s⁻¹ | EC50 (read off the curve) [2]: ~0.2 µg/mL | EC50 (read off the curve) [3]: ~0.2 µg/mL

B17: H3L1 (antibody, human IgG1, V domains shown)
VH: B1 VH with M48I, R67K, V68A
VL: B1 VL with D60S
Kd [1]: 1.8 nM | koff [1]: 0.00014 s⁻¹ | kon [1]: 78900 M⁻¹ s⁻¹ | EC50 (read off the curve) [2]: ~0.3 µg/mL

B18: H3L2 (antibody, human IgG1, V domains shown)
VH: B1 VH with M48I, R67K, V68A
VL: B1 VL
Kd [1]: 1.4 nM | koff [1]: 0.000122 s⁻¹ | kon [1]: 86600 M⁻¹ s⁻¹

B19: H3L3 (antibody, human IgG1, V domains shown)
VH: B1 VH with M48I, R67K, V68A
VL: B1 VL with I2V
Kd [1]: 1.1 nM | koff [1]: 0.000105 s⁻¹ | kon [1]: 95700 M⁻¹ s⁻¹

B20: H3L4 (antibody, human IgG1, V domains shown)
VH: B1 VH with M48I, R67K, V68A
VL: B1 VL with I2V, Y87F
Kd [1]: 1 nM | koff [1]: 8.91e-05 s⁻¹ | kon [1]: 90400 M⁻¹ s⁻¹

B21: H4L0 (antibody, human IgG1, V domains shown)
VH: B1 VH with T30A, M48I, R67K, V68A, I70L
VL: B1 VL with D60S, Y67S
notes: as for B7
Kd [1]: 7.8 nM | koff [1]: 0.00123 s⁻¹ | kon [1]: 158000 M⁻¹ s⁻¹

B22: H4L1 (antibody, human IgG1, V domains shown)
VH: B1 VH with T30A, M48I, R67K, V68A, I70L
VL: B1 VL with D60S
Kd [1]: 1.7 nM | koff [1]: 0.000179 s⁻¹ | kon [1]: 106000 M⁻¹ s⁻¹ | EC50 (read off the curve) [3]: ~0.2 µg/mL

B23: H4L2 (antibody, human IgG1, V domains shown)
VH: B1 VH with T30A, M48I, R67K, V68A, I70L
VL: B1 VL
Kd [1]: 0.9 nM | koff [1]: 7.12e-05 s⁻¹ | kon [1]: 77500 M⁻¹ s⁻¹

B24: H4L3 (antibody, human IgG1, V domains shown)
VH: B1 VH with T30A, M48I, R67K, V68A, I70L
VL: B1 VL with I2V
Kd [1]: 0.7 nM | koff [1]: 7.69e-05 s⁻¹ | kon [1]: 110000 M⁻¹ s⁻¹

B25: H4L4 (antibody, human IgG1, V domains shown)
VH: B1 VH with T30A, M48I, R67K, V68A, I70L
VL: B1 VL with I2V, Y87F
Kd [1]: 1.2 nM | koff [1]: 7.14e-05 s⁻¹ | kon [1]: 60100 M⁻¹ s⁻¹

B26: chimeric parental 3C12 antibody (antibody, human IgG1, V domains shown)
VH: QIQLQQSGPELVKPGASVKVSCKASGYAFASYNMNWVKQSHGKSLDWIGYIDPYNGGSSYNLTFKGKATLTVDKSSTTAYMHLNSLTSEDSAVYYCARGYGNYKAWFAYWGQGTLVTVSA
VL: DVVMTQTPKFLLVSAGDRVTITCKASQSVSNDVAWYQQKPGQSPKLLIYYASTRYTGVPDRFTGSGYGTDFTFTISTVQAEDLAVYFCQQDYSSLTFGAGTKLELK
notes: also called HPLP; parental antibody 3C12
Kd [1]: 0.68 nM | EC50 (read off the curve) [3]: ~0.2 µg/mL
